Reference: patent publication US11078245B2, “Colon and pancreas cancer peptidomimetics” (PRECISION BIOLOGICS, INC., priority 2010, dated 2021)

Legend:
CFPAC-1 cells = assay: Immunofluorescence staining with MUC5AC antibodies; type: cell-based, human; conditions: 2 μg/ml antibody
Protocol: LS174T and CFPAC-1 cells were grown on cover slips coated in FBS for 48 hours. Cells were then fixed with 4% PFA in PBS, washed with PBS, permeabilized with 0.2% Triton X-100, washed with PBS and blocked with 1% BSA in PBS. Cells were incubated with either 2 μg/ml NEO-101, MS-X, 2-11M1, H160, 351-450, 2-12M1, or 1-13M1. Cells were washed with PBS and then second antibody was added anti-human-FITC, anti-mouse-FITC or anti-rabbit-FITC (1:500), cells were washed and mounted on slides with DAPI hard mount. Cover slides were allowed to sit over night at 4° C. Slides were visualized with a Nikon Eclipse Ti microscope with an Andor camera.

AsPC-1 (Pancreatic) = assay: ADCC 4-hour 111-Indium release assay; type: cell-based, human
Protocol: (§1) The NEO-101 antibody was tested for antibody-dependent cell cytotoxicity (ADCC) activity against several colorectal and pancreatic tumor cell targets in vitro. The ADCC assay measures the amount of cell cytotoxicity that an antibody facilitates in a defined time period by the release of radiolabelled cytoplasmic proteins into the culture medium. […] The specific lytic activity was titratable with the number of effector cells in the assay.

CFPAC-1 (Pancreatic) = assay: ADCC 4-hour 111-Indium release assay; type: cell-based, human
Protocol: as §1

Colo-205 (Colorectal) = assay: ADCC 4-hour 111-Indium release assay; type: cell-based, human
Protocol: as §1

LS174T (Colorectal) = assay: ADCC 4-hour 111-Indium release assay; type: cell-based, human
Protocol: as §1

PANC-1 (Pancreatic) = assay: ADCC 4-hour 111-Indium release assay; type: cell-based, human
Protocol: as §1

SK-MEL (Melanoma) = assay: ADCC 4-hour 111-Indium release assay; type: cell-based, human
Protocol: as §1

SW1463 (Colorectal) = assay: ADCC 4-hour 111-Indium release assay; type: cell-based, human
Protocol: as §1

SW620 (Colorectal) = assay: ADCC 4-hour 111-Indium release assay; type: cell-based, human
Protocol: as §1

LS174T colorectal tumor = LS174T colorectal tumor xenograft model; type: in vivo, nude mice; conditions: same treatment regimen; last day P=0.0145
Protocol: Since the LS174T colorectal tumor cell line served as a good target in vitro in the ADCC assay, this cell line was used in a xenograft tumor model. The LS174T cells were implanted subcutaneously in nude mice and the same treatment regimen was administered to these mice. […] Nonetheless, we observed a 2-3-fold reduction in tumor growth in NEO-101 treated mice compared to the 2 control groups of mice following the treatment cycles. The anti-tumor effect upon treatment with NEO-101 was significant on the last day of measuring tumors with P=0.0145 by one-way ANOVA. However, many of the tumors in the control groups became ulcerated and were greater than 1000 mm^3 and the study was terminated.

B1: NEO-101: Chimeric NEO-101 antibody, engineered in CHO-DG44 production cell clone 4B7; targets a variant of MUC5AC (protein)
light: QVVLTQSPVIMSASPGEKVTMTCSASSSISYMYWYQQKPGTSPKRWIYDTSKLASGVPARFSGSGSGTSYSLTISNMEAGDAATYYCHQRDSYPWTFGGGTNLEIK
heavy: QVQLKESGPDLVAPSQSLSITCTVSGFSLSKFGVNWVRQPPGKGLEWLGVIWGDGSTSYNSGLISRLSISKENSKSQVFLKLNSLQADDTATYYCVKPGGDYWGHGTSVTVSS
For B1, the cells stained (CFPAC-1 cells) was “about 50%”, the “% Specific Killing (±SEM)” value (AsPC-1 (Pancreatic); Effector:Target 12.5:1) was 26.5 ± 6.7% and the “% Specific Killing (±SEM)” value (AsPC-1 (Pancreatic); Effector:Target 25:1) was 36.2 ± 2.6%. For the same molecule, the “% Specific Killing (±SEM)” value (AsPC-1 (Pancreatic); Effector:Target 50:1) was 44.5 ± 6.8%, the “% Specific Killing (±SEM)” value (CFPAC-1 (Pancreatic); Effector:Target 12.5:1) was 11.1 ± 1.6% and the “% Specific Killing (±SEM)” value (CFPAC-1 (Pancreatic); Effector:Target 25:1) was 23.2 ± 2.2%. For the same molecule, the “% Specific Killing (±SEM)” value (CFPAC-1 (Pancreatic); Effector:Target 50:1) was 26.9 ± 1.6%, the “% Specific Killing (±SEM)” value (Colo-205 (Colorectal); Effector:Target 12.5:1) was 32.8 ± 2.0% and the “% Specific Killing (±SEM)” value (Colo-205 (Colorectal); Effector:Target 25:1) was 46.4 ± 1.6%. For the same molecule, the “% Specific Killing (±SEM)” value (Colo-205 (Colorectal); Effector:Target 50:1) was 66.7 ± 0.6%, the “% Specific Killing (±SEM)” value (LS174T (Colorectal); Effector:Target 12.5:1) was 9.5 ± 0.5% and the “% Specific Killing (±SEM)” value (LS174T (Colorectal); Effector:Target 25:1) was 18.5 ± 4.1%. For the same molecule, the “% Specific Killing (±SEM)” value (LS174T (Colorectal); Effector:Target 50:1) was 26.8 ± 2.9%, the “% Specific Killing (±SEM)” value (PANC-1 (Pancreatic); Effector:Target 12.5:1) was 21.2 ± 0.6% and the “% Specific Killing (±SEM)” value (PANC-1 (Pancreatic); Effector:Target 25:1) was 33.2 ± 3.3%. The “% Specific Killing (±SEM)” value (PANC-1 (Pancreatic); Effector:Target 50:1) was 46.8 ± 2.1%, the “% Specific Killing (±SEM)” value (SK-MEL (Melanoma); Effector:Target 12.5:1) was 2.3 ± 0.6% and the “% Specific Killing (±SEM)” value (SK-MEL (Melanoma); Effector:Target 25:1) was 3.3 ± 1.1%. The “% Specific Killing (±SEM)” value (SK-MEL (Melanoma); Effector:Target 50:1) was 4.6 ± 1.1%, the “% Specific Killing (±SEM)” value (SW1463 (Colorectal); Effector:Target 12.5:1) was 17.9 ± 1.7% and the “% Specific Killing (±SEM)” value (SW1463 (Colorectal); Effector:Target 25:1) was 25.5 ± 0.6%. For the same molecule, the “% Specific Killing (±SEM)” value (SW1463 (Colorectal); Effector:Target 50:1) was 33.8 ± 1.0%, the “% Specific Killing (±SEM)” value (SW620 (Colorectal); Effector:Target 12.5:1) was 51.5 ± 0.9% and the “% Specific Killing (±SEM)” value (SW620 (Colorectal); Effector:Target 25:1) was 61.0 ± 1.8%. For the same molecule, the “% Specific Killing (±SEM)” value (SW620 (Colorectal); Effector:Target 50:1) was 63.7 ± 2.9% and the “reduction in tumor growth compared to the 2 control groups” value (LS174T colorectal tumor) was 2-3 fold.
